# Data published in patent publication US20140242093A1, “METHODS AND COMPOSITIONS FOR MODULATING THE INNATE IMMUNE RESPONSE AND/OR MYOGENESIS IN A MAMMALIAN SUBJECT” (FRED HUTCHINSON CANCER RESEARCH CENTER, priority 2011, published 2014).
# B1: DUX4-s: short splice form of DUX4 (SEQ ID NO:112), keeps the double-homeobox domains, lacks the C-terminal activation domain (protein, listed as Homo sapiens)
# chain: MALPTPSDSTLPAEARGRGRRRRLVWTPSQSEALRACFERNPYPGIATRERLAQAIGIPEPRVQIWFQNERSRQLRQHRRESRPWPGRRGPPEGRRKRTAVTGSQTALLLRAFEKDRFPGIAAREELARETGLPESRIQIWFQNRRARHPGQGGRAPAQV
# System: control human primary myoblasts
# Assay: Expression microarray of primary myoblasts transduced with lentivirus carrying DUX4-fl, DUX4-s or GFP
# Method: Primary human myoblasts were collected and cultured as previously described (Snider et al., 2010). Primary myoblasts were maintained at or below 70% confluency for proliferation. For differentiation, cells were allowed to reach 95-100% confluency in growth medium. Once confluency was reached, the cells were changed to differentiation medium (F10 media supplemented with 1% horse serum, 10 μg/mL insulin, and 10 μg/mL transferrin, penicillin/streptomycin) and maintained for 4 days. Human RD cells were grown in DMEM in 10% bovine calf serum (Hyclone) and penicillin/streptomycin. The primary myoblasts were transduced with lentivirus carrying DUX-fl, DUX4- or GFP (MOI=15).
# Expression microarrays were performed on the transduced cells at 24 hours after transduction as follows. […] Samples were analyzed by Illumina Human Whole Genome microarrays. Probe intensities were corrected, normalized, and summarized by the Lumi package of Bioconductor (Du et al., 2008). Differentially expressed genes were identified by the LIMMA package of Bioconductor (Wettenhall and Smyth, 2004). Gene set enrichment analysis (GSEA) was performed using the Bioconductor GOstats package (Falcon and Gentleman, 2007).
molecule,measurement,setting,value
B1,C1orf55 expression fc,Refseq NM_152608.3,−0.3632
same,MLKL expression fc,"Refseq NM_152649.1, cultured human skeletal muscle",1.457
same,ZSCAN4 expression fc,Refseq NM_152677.1,0.04366
same,SAMD9L expression fc,"Refseq NM_152703.2, cultured human skeletal muscle",1.257
same,VWCE expression fc,"Refseq NM_152718.2, cultured human skeletal muscle",−0.1213
same,fc of D2HGDH (expression array),Refseq NM_152783.3,−0.3982
same,FAS fc,Refseq NM_152877.1,0.1452
same,APCDD1 expression fc,"Refseq NM_153000.3, cultured human skeletal muscle",−0.4301
same,PMP22 fc,Refseq NM_153321.1,0.2667
same,SLC2A14 expression fc,Refseq NM_153449.2,0.2472
same,CYBASC3 expression fc,"Refseq NM_153611.3, cultured human skeletal muscle",−0.4218
same,GPBAR1 expression fc,Refseq NM_170699.2,−0.1298
same,NLRX1 fc,Refseq NM_170722.1,−0.1409
same,fc of HSCB (expression array),Refseq NM_172002.3,0.1735
same,fc of ZNF650 (expression array),Refseq NM_172070.2,0.6904
same,fc of IL4I1 (expression array),Refseq NM_172374.1,1.769
same,KLF17 expression fc,Refseq NM_173484.3,0.08045
same,fc of RCOR2 (expression array),Refseq NM_173587.2,−0.1949
same,fc of DCBLD1 (expression array),Refseq NM_173674.1,1.594
same,WARS expression fc,"Refseq NM_173701.1, cultured human skeletal muscle",1.715
same,fc of C3orf38 (expression array),Refseq NM_173824.2,1.033
same,fc of UBR1 (expression array),Refseq NM_174916.1,1.111
same,fc of C4orf34 (expression array),Refseq NM_174921.1,0.6119
same,FRMD3 fc,Refseq NM_174938.3,−0.2907
same,MT1E expression fc,"Refseq NM_175617.3, cultured human skeletal muscle",0.1289
same,TXLNA fc,Refseq NM_175852.3,−0.1621
same,MT1M expression fc,"Refseq NM_176870.2, cultured human skeletal muscle",1.185
same,PPAP2A fc,Refseq NM_176895.1,0.545
same,CSE1L expression fc,Refseq NM_177436.1,0.07287
same,PPM1B expression fc,Refseq NM_177968.2,−0.0342
same,fc of STARD13 (expression array),Refseq NM_178006.1,−0.8963
same,RILPL1 fc,Refseq NM_178314.2,0.6233
same,HIF1A fc,Refseq NM_181054.1,0.4209
same,ID1 fc,Refseq NM_181353.1,0.7329
same,C1QTNF3 expression fc,Refseq NM_181435.4,−0.02264
same,PPP2R2B expression fc,Refseq NM_181677.1,−0.1091
same,PPP2R2C fc,Refseq NM_181876.2,−0.2308
same,BCL9L fc,Refseq NM_182557.2,0.7326
same,fc of IRF2BP2 (expression array),Refseq NM_182972.2,−0.806
same,fc of TRIM69 (expression array),Refseq NM_182985.3,0.2639
same,fc of TRIM55 (expression array),Refseq NM_184086.1,0.1967
same,RBM39 expression fc,Refseq NM_184234.1,0.263
same,INO80C expression fc,Refseq NM_194281.3,−0.1128
same,SPTY2D1 expression fc,Refseq NM_194285.2,−0.2916
same,fc of RNASE4 (expression array),Refseq NM_194431.1,−0.1107
same,BID fc,Refseq NM_197966.1,−0.1675
same,fc of MZF1 (expression array),Refseq NM_198055.1,0.05558
same,fc of ARSK (expression array),Refseq NM_198150.1,1.03
same,fc of SRC (expression array),Refseq NM_198291.1,0.0569
same,fc of APOOL (expression array),Refseq NM_198450.3,1.369
same,DENND2C expression fc,Refseq NM_198459.2,−0.2684
same,TPRX1 expression fc,Refseq NM_198479.2,−0.05019
same,AGRN expression fc,"Refseq NM_198576.2, cultured human skeletal muscle",0.3808
same,C1QTNF1 expression fc,"Refseq NM_198594.1, cultured human skeletal muscle",0.7696
same,fc of SERPINB8 (expression array),Refseq NM_198833.1,1.016
same,SEMA4B expression fc,"Refseq NM_198925.1, cultured human skeletal muscle",0.1542
same,C9orf169 expression fc,"Refseq NM_199001.1, cultured human skeletal muscle",−0.05213
same,T1560 expression fc,Refseq NM_199048.1,0.02012
same,XAF1 expression fc,"Refseq NM_199139.1, cultured human skeletal muscle",0.6222
same,SAA1 expression fc,"Refseq NM_199161.1, cultured human skeletal muscle",0.2569
same,C20orf117 fc,Refseq NM_199181.2,−0.5322
same,fc of TMEM189-UBE2V1 (expression array),Refseq NM_199203.1,0.06378
same,DGKA expression fc,"Refseq NM_201554.1, cultured human skeletal muscle",0.1014
same,fc of ZMYM3 (expression array),Refseq NM_201599.1,−0.01297
same,FBXO33 expression fc,Refseq NM_203301.1,0.2162
same,SYNJ1 expression fc,Refseq NM_203446.1,−0.07515
same,fc of CMPK2 (expression array),Refseq NM_207315.2,1.351
same,CYP4V2 fc,Refseq NM_207352.2,−0.4989
same,fc of C15orf52 (expression array),Refseq NM_207380.1,−0.2956
same,FLJ45337 expression fc,Refseq NM_207465.1,−0.2461
same,ATP2B1 fc,Refseq NM_001001323.1,−0.7039
same,FLJ45139 expression fc,Refseq NM_001001692.1,0.1009
same,OR2T34 expression fc,Refseq NM_001001821.1,−0.05408
same,fc of GPM6B (expression array),Refseq NM_001001995.1,−1.119
same,NT5C1B expression fc,Refseq NM_001002006.1,−0.03655
same,fc of NT5C3 (expression array),Refseq NM_001002010.1,1.882
same,RAB11FIP1 expression fc,Refseq NM_001002814.1,−0.4765
same,fc of LEPR (expression array),Refseq NM_001003679.1,−0.5494
same,ZNF705A expression fc,Refseq NM_001004328.1,−0.06059
same,HIST2H3A expression fc,Refseq NM_001005464.2,−0.05203
same,GBA fc,Refseq NM_001005742.1,0.289
same,SIAH1 expression fc,Refseq NM_001006610.1,−0.0793
same,OPTN fc,Refseq NM_001008213.1,−0.5727
same,SLC7A2 expression fc,"Refseq NM_001008539.2, cultured human skeletal muscle",−0.1055
same,CXCR4 expression fc,Refseq NM_001008540.1,−0.0521
same,fc of CLSTN1 (expression array),Refseq NM_001009566.1,−0.2768
same,PRAMEF4 expression fc,Refseq NM_001009611.1,0.0423
same,C6orf191 expression fc,Refseq NM_001010876.1,−0.05752
same,PRAMEF6 expression fc,Refseq NM_001010889.2,−0.06189
same,PRAMEF9 expression fc,Refseq NM_001010890.1,−0.07265
same,PRAMEF8 expression fc,Refseq NM_001012276.1,0.1662
same,PRAMEF7 expression fc,Refseq NM_001012277.1,0.106
same,fc of MYPOP (expression array),Refseq NM_001012643.2,−0.03552
same,PRAMEF5 expression fc,Refseq NM_001013407.1,0.1054
same,HNRNPCL1 expression fc,Refseq NM_001013631.1,−0.1035
same,RFPL4B expression fc,Refseq NM_001013734.2,−0.1031
same,ODF3B fc,Refseq NM_001014440.2,0.4296
same,DNAJC25 expression fc,Refseq NM_001015882.2,−0.5072
same,KCNK2 fc,Refseq NM_001017425.2,0.2137
same,CCDC58 expression fc,Refseq NM_001017928.2,0.07678
same,fc of ATP6AP1L (expression array),Refseq NM_001017971.1,0.02803
same,SH3PXD2B fc,Refseq NM_001017995.1,−0.01555
same,ZBTB16 expression fc,"Refseq NM_001018011.1, cultured human skeletal muscle",0.4921
same,fc of SERBP1 (expression array),Refseq NM_001018069.1,−1.179
same,SOD2 expression fc,"Refseq NM_001024466.1, cultured human skeletal muscle",1.532
same,fc of RUNX2 (expression array),Refseq NM_001024630.2,0.05524
same,CLK1 expression fc,Refseq NM_001024646.1,0.0752
same,fc of TGFBR2 (expression array),Refseq NM_001024847.1,0.1743
same,TSPAN4 fc,Refseq NM_001025235.1,−0.1169
same,fc of RFX5 (expression array),Refseq NM_001025603.1,−0.06023
same,PSRC1 fc,Refseq NM_001032290.1,−0.4871
same,OAS1 expression fc,"Refseq NM_001032409.1, cultured human skeletal muscle",1.453
same,ENTPD8 expression fc,Refseq NM_001033113.1,0.03523
same,RHOT1 fc,Refseq NM_001033566.1,0.3308
same,CYFIP2 fc,Refseq NM_001037333.1,−0.633
same,fc of PHYH (expression array),Refseq NM_001037537.1,−0.5757
same,fc of EFEMP1 (expression array),Refseq NM_001039348.1,−0.2077
same,PRAMEF10 expression fc,Refseq NM_001039361.1,0.008756
same,ETNK1 expression fc,Refseq NM_001039481.1,0.06444
same,LOC440053 expression fc,Refseq NM_001039615.1,−0.09982
same,CBLN3 fc,Refseq NM_001039771.2,0.1543
same,HEY1 expression fc,Refseq NM_001040708.1,−0.04271
same,fc of UHRF1 (expression array),Refseq NM_001048201.1,−1.034
same,DBNDD2 expression fc,Refseq NM_001048223.1,0.2257
same,NCOR2 fc,Refseq NM_001077261.1,−0.2241
same,fc of NFKB2 (expression array),Refseq NM_001077493.1,0.2202
same,fc of SLC29A1 (expression array),Refseq NM_001078174.1,−1.034
same,DYNC2H1 expression fc,Refseq NM_001080463.1,0.04558
same,PRAMEF12 expression fc,Refseq NM_001080830.1,0.1269
same,FRG2B expression fc,Refseq NM_001080998.1,0.1315
same,DEFB103A expression fc,Refseq NM_001081551.2,0.06581
same,CPSF4 fc,Refseq NM_001081559.1,−0.2674
same,fc of GPD2 (expression array),Refseq NM_001083112.1,1.197
same,fc of GPR1 (expression array),Refseq NM_001098199.1,0.2201
same,HLA-F expression fc,"Refseq NM_001098479.1, cultured human skeletal muscle",0.9368
same,RFPL3 expression fc,Refseq NM_001098535.1,−0.06033
same,PRR4 expression fc,Refseq NM_001098538.1,0.1606
same,FAM156B fc,Refseq NM_001099684.1,−0.1712
